Test results reported in PMC10094722, “How Single Amino Acid Substitutions Can Disrupt a Protein Hetero-Dimer Interface: Computational and Experimental Studies of the LigAB Dioxygenase from Sphingobium sp. Strain SYK-6” (International Journal of Molecular Sciences, 2023).
Numbering of substitutions follows the chain as printed. In names and notes the source's numbering stands. Several values for one entry are separate records, joined by “and”; a condition that tells them apart may be missing. Equal entries are not always repeated.

Assays:
LigA F103A = target: T1, LigA F103A (Sphingobium sp. strain SYK-6, UniProt P22635 1-139, F103A); assay: pull-down; co-purification of untagged LigB with His6-LigA on HisPur Ni-NTA resin from lysate of co-expressing E. coli, aerobic; 50 mM HEPES, 300 mM NaCl, pH 8.0, imidazole step gradient (62.5, 125, 250 mM); fractions on SDS-PAGE, Coomassie, quantified with ImageQuant; settings: partners not purified
T1 construct: Protocatechuate 4,5-dioxygenase alpha chain (LigA), Sphingobium sp. strain SYK-6, with F103A; Site-directed mutagenesis as described by Barry et al; also called F103α to alanine; source: E. coli BL21, pET15b, co-expressed with LigB; in lysate and purified (Ni-NTA); not shown: His6, N-terminal, kept
T1 sequence: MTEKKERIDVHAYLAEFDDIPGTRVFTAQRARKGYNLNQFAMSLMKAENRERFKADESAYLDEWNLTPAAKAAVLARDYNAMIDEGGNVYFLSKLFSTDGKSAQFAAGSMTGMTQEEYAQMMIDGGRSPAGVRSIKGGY

LigA F103H = target: T2, LigA F103H (Sphingobium sp. strain SYK-6, UniProt P22635 1-139, F103H); assay: as above; settings: partners not purified
T2 construct: Protocatechuate 4,5-dioxygenase alpha chain (LigA), Sphingobium sp. strain SYK-6, with F103H; Site-directed mutagenesis as described by Barry et al; source: E. coli BL21, pET15b, co-expressed with LigB; in lysate; not shown: His6, N-terminal, kept
T2 sequence: T1 sequence with A103H

LigA F103T = target: T3, LigA F103T (Sphingobium sp. strain SYK-6, UniProt P22635 1-139, F103T); assay: as above; settings: partners not purified
T3 construct: Protocatechuate 4,5-dioxygenase alpha chain (LigA), Sphingobium sp. strain SYK-6, with F103T; Site-directed mutagenesis as described by Barry et al; source: E. coli BL21, pET15b, co-expressed with LigB; in lysate; not shown: His6, N-terminal, kept
T3 sequence: T1 sequence with A103T

LigA F103L = target: T4, LigA F103L (Sphingobium sp. strain SYK-6, UniProt P22635 1-139, F103L); assay: as above; settings: partners not purified
T4 construct: Protocatechuate 4,5-dioxygenase alpha chain (LigA), Sphingobium sp. strain SYK-6, with F103L; Site-directed mutagenesis as described by Barry et al; source: E. coli BL21, pET15b, co-expressed with LigB; in lysate; not shown: His6, N-terminal, kept
T4 sequence: T1 sequence with A103L

[1] = target: T5, LigA, alpha subunit of protocatechuate 4,5-dioxygenase (LigAB), wild-type (Sphingobium sp. strain SYK-6, UniProt P22635 1-139); assay: as above; settings: partners not purified
T5 construct: Protocatechuate 4,5-dioxygenase alpha chain (LigA), Sphingobium sp. strain SYK-6; 17.711 kDa with the His6-tag; also called α subunit; source: E. coli BL21, pET15b, co-expressed with LigB; in lysate and purified (Ni-NTA); not shown: His6, N-terminal, kept
T5 sequence: T1 sequence with A103F

LigA F103V = target: T6, LigA F103V (Sphingobium sp. strain SYK-6, UniProt P22635 1-139, F103V); assay: as above; settings: partners not purified
T6 construct: Protocatechuate 4,5-dioxygenase alpha chain (LigA), Sphingobium sp. strain SYK-6, with F103V; Site-directed mutagenesis as described by Barry et al; source: E. coli BL21, pET15b, co-expressed with LigB; in lysate; not shown: His6, N-terminal, kept
T6 sequence: T1 sequence with A103V

LigA F103S = target: T7, LigA F103S (Sphingobium sp. strain SYK-6, UniProt P22635 1-139, F103S); assay: as above; settings: partners not purified
T7 construct: Protocatechuate 4,5-dioxygenase alpha chain (LigA), Sphingobium sp. strain SYK-6, with F103S; Site-directed mutagenesis as described by Barry et al; source: E. coli BL21, pET15b, co-expressed with LigB; in lysate and purified (Ni-NTA); not shown: His6, N-terminal, kept
T7 sequence: T1 sequence with A103S

[2] = target: the molecule itself; assay: native gel or EMSA; 10% native polyacrylamide gel of purified LigAB (wild-type, F103A, F103S), Coomassie stained, 6.25 to 50 ug protein per lane; masses calculated from the bands

B1: LigB, beta subunit of protocatechuate 4,5-dioxygenase (LigAB) (natural protein, Sphingobium sp. strain SYK-6)
chain: MARVTTGITSSHIPALGAAIQTGTSDNDYWGPVFKGYQPIRDWIKQPGNMPDVVILVYNDHASAFDMNIIPTFAIGCAETFKPADEGWGPRPVPDVKGHPDLAWHIAQSLILDEFDMTIMNQMDVDHGCTVPLSMIFGEPEEWPCKVIPFPVNVVTYPPPSGKRCFALGDSIRAAVESFPEDLNVHVWGTGGMSHQLQGPRAGLINKEFDLNFIDKLISDPEELSKMPHIQYLRESGSEGVELVMWLIMRGALPEKVRDLYTFYHIPASNTALGAMILQPEETAGTPLEPRKVMSGHSLAQA
notes: Protocatechuate 4,5-dioxygenase beta chain (LigB), Sphingobium sp. strain SYK-6; 33.292 kDa; untagged; also called β subunit; source: E. coli BL21, pET15b, co-expressed with His6-LigA (wild-type or mutant); in lysate and co-purified (Ni-NTA)
LigA F103A
  α:β ratio of abundances in elution fractions E3-1 to E3-5: 0.817
  β:α ratio of abundances in elution fractions E3-1 to E3-5: 1.22
LigA F103H
  α:β ratio of abundances in elution fractions E3-1 to E3-5: 2.19
  β:α ratio of abundances in elution fractions E3-1 to E3-5: 0.456
LigA F103T
  α:β ratio of abundances in elution fractions E3-1 to E3-5: 1.64
  β:α ratio of abundances in elution fractions E3-1 to E3-5: 0.608
LigA F103L
  α:β ratio of abundances in elution fractions E3-1 to E3-5: 0.879
  β:α ratio of abundances in elution fractions E3-1 to E3-5: 1.14
[1]
  α:β ratio of abundances in elution fractions E3-1 to E3-5: 1.08
  β:α ratio of abundances in elution fractions E3-1 to E3-5: 0.928
LigA F103V
  α:β ratio of abundances in elution fractions E3-1 to E3-5: 0.79
  β:α ratio of abundances in elution fractions E3-1 to E3-5: 1.27
LigA F103S
  α:β ratio of abundances in elution fractions E3-1 to E3-5: 1.04
  β:α ratio of abundances in elution fractions E3-1 to E3-5: 0.959

B2: LigAB α/β heterodimer with LigA F103S (complex, Sphingobium sp. strain SYK-6)
chain 1: T1 sequence with A103S
chain 2: B1 chain
notes: Protocatechuate 4,5-dioxygenase alpha chain (LigA), Sphingobium sp. strain SYK-6, with F103S; as m6; Protocatechuate 4,5-dioxygenase beta chain (LigB), Sphingobium sp. strain SYK-6; as m2; The heterodimer as the unit that associates with itself in the native gel; also called F103S variant; source: E. coli BL21, pET15b, co-expressed, purified (Ni-NTA); not shown: His6, N-terminal, kept
[2]
  stoichiometry N: 3 and 6

B3: LigAB α/β heterodimer with LigA F103A (complex, Sphingobium sp. strain SYK-6)
chain 1: T1 sequence
chain 2: B1 chain
notes: Protocatechuate 4,5-dioxygenase alpha chain (LigA), Sphingobium sp. strain SYK-6, with F103A; as m3; Protocatechuate 4,5-dioxygenase beta chain (LigB), Sphingobium sp. strain SYK-6; as m2; The heterodimer as the unit that associates with itself in the native gel; also called F103A mutant enzyme; source: E. coli BL21, pET15b, co-expressed, purified (Ni-NTA); not shown: His6, N-terminal, kept
[2]
  binding result: binds

B4: LigAB α/β heterodimer, wild-type (protocatechuate 4,5-dioxygenase) (complex, Sphingobium sp. strain SYK-6)
chain 1: T1 sequence with A103F
chain 2: B1 chain
notes: Protocatechuate 4,5-dioxygenase alpha chain (LigA), Sphingobium sp. strain SYK-6; as m1; Protocatechuate 4,5-dioxygenase beta chain (LigB), Sphingobium sp. strain SYK-6; as m2; The heterodimer as the unit that associates with itself in the native gel; also called wild-type LigAB; WT-LigAB; source: E. coli BL21, pET15b, co-expressed, purified (Ni-NTA); not shown: His6, N-terminal, kept
[2]
  stoichiometry N: 3
